In test [1] the target is recombinant phosphomimetic CENP-T/W complex (T11D, T27D, T85D) (human) (UniProt Q96BT3). The test is described as follows: pull-down.
Test [2] has as its target recombinant full-length wild-type CENP-T/W complex (human, UniProt Q96BT3 1-561; Q5EE01 1-88). The test is described as follows: pull-down.

Chain of recombinant full-length wild-type CENP-T/W complex (Q96BT3 whole entry, chain 1 of 2): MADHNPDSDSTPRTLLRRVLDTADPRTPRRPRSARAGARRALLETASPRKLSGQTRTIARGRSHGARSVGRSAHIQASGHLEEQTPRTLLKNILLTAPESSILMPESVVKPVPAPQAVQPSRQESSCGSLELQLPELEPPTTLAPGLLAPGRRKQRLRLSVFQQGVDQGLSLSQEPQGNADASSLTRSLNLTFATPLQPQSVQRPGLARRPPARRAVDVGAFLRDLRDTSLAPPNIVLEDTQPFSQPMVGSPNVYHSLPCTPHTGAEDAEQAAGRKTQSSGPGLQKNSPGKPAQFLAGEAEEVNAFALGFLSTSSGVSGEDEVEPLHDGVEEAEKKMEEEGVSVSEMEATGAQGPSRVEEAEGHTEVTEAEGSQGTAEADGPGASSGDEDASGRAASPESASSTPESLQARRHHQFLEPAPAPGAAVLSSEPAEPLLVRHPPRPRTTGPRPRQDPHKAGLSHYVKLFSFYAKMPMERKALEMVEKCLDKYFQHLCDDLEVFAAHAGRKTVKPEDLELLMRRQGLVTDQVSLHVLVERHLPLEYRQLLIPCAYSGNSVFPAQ
Chain of recombinant full-length wild-type CENP-T/W complex (Q5EE01 whole entry, chain 2 of 2): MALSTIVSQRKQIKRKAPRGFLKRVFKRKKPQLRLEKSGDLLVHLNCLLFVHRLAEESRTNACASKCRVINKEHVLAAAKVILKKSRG
Chain of recombinant phosphomimetic CENP-T/W complex (T11D, T27D, T85D) (human) (Q96BT3 whole entry T11D/T27D/T85D, chain 1 of 2): as the sequence (Q96BT3 whole entry, chain 1 of 2) above, with T11D, T27D, T85D counted along it
Chain of recombinant phosphomimetic CENP-T/W complex (T11D, T27D, T85D) (human) (Q5EE01 whole entry, chain 2 of 2, further chain): as the sequence (Q5EE01 whole entry, chain 2 of 2) above

“recombinant full-length GFP-fused human Ndc80 complex (from UniProt O14777 1-642; Q9BZD4 1-464; Q8NBT2 1-197; Q9HBM1 1-224)”: the fold weaker recruitment than the Ndc80 proteins with shortened stalk in test [1] came to 5 times weaker.

B1: human Bonsai Ndc80 complex (Bonsai Ndc80-GFP) (complex)
chain 1: MKRSSVSSGGAGRLSMQELRSQDVNKQGLYTPQTKEKPTFGKLSINKPTSERKVSLFGKRTSGHGSRNSQLGIFSSSEKIKDPRPLNDKAFIQQCIRQLCEFLTENGYAHNVSMKSLQAPSVKDFLKIFTFLYGFLCPSYELPDTKFEEEVPRIFKDLGYPFALSKSSMYTVGAPHTWPHIVAALVWLIDCIKIHTAMKESSPLFDDGQPWGEETEDGIMHNKLFLDYTIKCYESFMSGADSFDEMNAELQSKLKDLFNVDAFKLESLEAKNRALNEQIARLEQERSTANKANAERLKRLQKSADLYKDRLGLEIRKIYGEKLQFIFTNIDPKNPESPFMFSLHLNEARDYEVSDSAPHLEGLAEFQENVRKTNNFSAFLANVRKAFTATVYN
chain 2: METLSFPRYNVAEIVIHIRNKILTGADGKNLTKNDLYPNPKPEVLHMIYMRALQIVYGIRLEHFYMMPVNSEVMYPHLMEGFLPFSNLVTHLDSFLPICRVNDFETADILCPKAKRTSRFLSGIINFIHFREACRETYMEFLWQYKSSADKMQQLNAAHQEALMKLERLEKEVDEDTTVTIPSAVYVAQLYHQVSKIEWDYECEPGMVKGIHHGPSVAQPIHLDSTQLSRKFISDYLWSLVDTEW
For the molecule B1, in test [2], the binding result is “binds”.

Values taken from article PMC8351545 (Molecular Biology of the Cell, 2021).
